Test results reported in patent publication US9981050B2, “Bispecific peptide conjugate and radioactive bispecific peptide imaging agent” (Institute of Nuclear Energy Research, Atomic Energy …, priority 2015, dated 2018).
Where two headings read alike, the source gives them in different places.

Tests used:
[1] = PET/CT imaging in NCI-H292 tumor bearing nude mice; format: in vivo; details: mouse, iv, subcutaneous NCI-H292 tumor, 11 MBq via tail vein, 2 hours post-injection, PET/CT quantified by PMODE, read-out: tumor/muscle ratio (T/M ratio)
Description: In this example, the bispecific peptide conjugate (that is, ^68Ga-NOTA-RGD-GE11) tagged with a radioactive isotope prepared in Example 2 was tested and was compared with monospecific peptide conjugate ^68Ga-NOTA-GE11. The right thigh of nude mice was subcutaneously inoculated with 5×10^6 NCI-H292 tumor cells. The tumors were allowed to grow for about 4 weeks until the tumor size reached 0.5 cm diameter. Then, the animals were anesthetized with isoflorane, injected with 11 MBq ^68Ga-NOTA-RGD-GE11 or ^68Ga-NOTA-GE11 (0.1 mL) via the tail vein, and imaged for 2 hours by Positron Emission Tomography/Computed Tomography (PET/CT). The images were quantified by using PMODE Software.

[2] = target: T1, EGFR in A549 tumor cells (Homo sapiens, UniProt P00533); experiment: Specific binding assay: inhibition of anti-EGFR antibody binding to A549 tumor cells; format: cell-based; details: various concentrations, 2 hrs, absorbance decreases with increasing concentration
T1 construct: endogenous in cells; host or cells: A549 tumor cells
Description: (§1) In this example, the bispecific peptide conjugate (that is, NOTA-c(RGDyk)-cys-6-ahx-GE11) prepared in Example 1 was assayed.
(§2) A549 tumor cells were plated in a 96-well plate (5×10^4 cells/well). Various concentrations of NOTA-c(RGDyk)-cys-6-ahx-GE11 and anti-EGFR antibody or anti-integrin αV antibody were added and reacted for 2 hrs. Then, a secondary antibody and ABTS were added and reacted for 8 hrs. The antibody binding was assayed by a fluorimeter.

[3] = target: T2, integrin αV in A549 tumor cells (Homo sapiens, UniProt P05106+P06756); experiment: Specific binding assay: inhibition of anti-integrin αV antibody binding to A549 tumor cells; format: cell-based; details: various concentrations, 2 hrs, absorbance decreases with increasing concentration
T2 construct: endogenous in cells; host or cells: A549 tumor cells
T2 sequence (P06756 31-889 limits assumed): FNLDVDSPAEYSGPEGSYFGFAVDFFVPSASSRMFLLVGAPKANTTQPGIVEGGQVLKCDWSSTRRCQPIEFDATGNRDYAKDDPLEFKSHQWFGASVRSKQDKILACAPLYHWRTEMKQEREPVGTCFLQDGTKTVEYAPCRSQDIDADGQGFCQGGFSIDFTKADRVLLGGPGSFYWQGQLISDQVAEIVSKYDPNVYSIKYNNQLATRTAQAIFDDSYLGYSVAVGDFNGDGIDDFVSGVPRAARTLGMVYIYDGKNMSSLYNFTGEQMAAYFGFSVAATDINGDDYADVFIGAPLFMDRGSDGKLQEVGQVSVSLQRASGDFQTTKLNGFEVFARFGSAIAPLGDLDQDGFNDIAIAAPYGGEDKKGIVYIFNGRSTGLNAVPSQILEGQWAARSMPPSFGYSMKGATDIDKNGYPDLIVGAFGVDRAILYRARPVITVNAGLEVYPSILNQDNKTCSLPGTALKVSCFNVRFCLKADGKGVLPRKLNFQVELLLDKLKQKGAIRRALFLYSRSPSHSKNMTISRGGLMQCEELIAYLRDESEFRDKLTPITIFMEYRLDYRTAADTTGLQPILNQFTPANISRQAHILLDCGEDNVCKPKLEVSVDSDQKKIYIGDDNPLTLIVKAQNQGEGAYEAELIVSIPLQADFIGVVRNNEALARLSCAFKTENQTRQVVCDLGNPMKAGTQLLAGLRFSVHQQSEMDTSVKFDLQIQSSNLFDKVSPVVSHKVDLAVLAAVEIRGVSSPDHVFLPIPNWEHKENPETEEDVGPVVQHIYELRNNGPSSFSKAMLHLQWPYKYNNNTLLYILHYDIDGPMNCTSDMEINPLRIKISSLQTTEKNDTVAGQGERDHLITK
T2 sequence (P06756 891-1048 partner limits assumed): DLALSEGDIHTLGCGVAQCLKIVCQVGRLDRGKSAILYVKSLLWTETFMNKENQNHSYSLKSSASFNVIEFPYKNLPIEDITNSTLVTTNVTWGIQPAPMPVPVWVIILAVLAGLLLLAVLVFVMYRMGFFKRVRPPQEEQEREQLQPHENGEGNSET
T2 sequence (P05106 27-788): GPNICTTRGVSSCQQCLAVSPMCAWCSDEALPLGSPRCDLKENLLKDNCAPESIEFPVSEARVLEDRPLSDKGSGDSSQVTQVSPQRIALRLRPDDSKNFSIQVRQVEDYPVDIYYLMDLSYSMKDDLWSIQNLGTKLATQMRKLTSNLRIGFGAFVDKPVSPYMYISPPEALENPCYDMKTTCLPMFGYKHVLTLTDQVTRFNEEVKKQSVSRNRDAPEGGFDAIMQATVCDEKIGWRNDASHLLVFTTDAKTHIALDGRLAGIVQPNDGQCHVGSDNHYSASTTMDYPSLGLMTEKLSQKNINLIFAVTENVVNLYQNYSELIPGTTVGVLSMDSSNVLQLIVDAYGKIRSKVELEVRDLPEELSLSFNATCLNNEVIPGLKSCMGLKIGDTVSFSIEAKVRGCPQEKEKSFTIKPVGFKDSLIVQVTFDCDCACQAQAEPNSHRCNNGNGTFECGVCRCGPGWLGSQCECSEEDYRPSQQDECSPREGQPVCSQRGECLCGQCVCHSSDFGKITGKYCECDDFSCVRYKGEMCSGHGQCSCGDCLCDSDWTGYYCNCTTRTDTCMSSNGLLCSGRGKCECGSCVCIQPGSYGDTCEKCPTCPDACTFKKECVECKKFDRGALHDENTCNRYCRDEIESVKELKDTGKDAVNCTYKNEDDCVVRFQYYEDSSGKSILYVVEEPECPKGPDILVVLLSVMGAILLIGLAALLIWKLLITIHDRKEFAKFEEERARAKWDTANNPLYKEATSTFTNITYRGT
Description: as §1, §2

CC[C@H](C)[C@H](NC(=O)[C@@H](NC(=O)[C@H](CC(N)=O)NC(=O)[C@H](CCC(N)=O)NC(=O)[C@@H]1CCCN1C(=O)[C@@H](NC(=O)[C@H](Cc1ccc(O)cc1)NC(=O)CNC(=O)[C@H](Cc1ccc(O)cc1)NC(=O)[C@H](Cc1c[nH]c2ccccc12)NC(=O)[C@H](Cc1c[nH]cn1)NC(=O)[C@H](Cc1ccc(O)cc1)NC(=O)CCCCCNC(=O)[C@H](CSC1CC(=O)N(CCC(=O)NCCCC[C@@H]2NC(=O)[C@@H](Cc3ccc(O)cc3)NC(=O)[C@H](CC(=O)O)NC(=O)CNC(=O)[C@H](CCCNC(=N)N)NC2=O)C1=O)NC(=O)CN1CCN(CC(=O)O)CCN(CC(=O)O)CC1)[C@@H](C)O)C(C)C)C(=O)O (stereo partly shown) [^68Ga-NOTA-RGD-GE11, metal not drawn]
tissue to tissue ratio at 2 h ([1]; tumor / muscle, total radioactivity): 4.31

NOTA-c(RGDyk)-cys-6-ahx-GE11
inhibition of the binding of the anti-EGFR antibody to tumor cells [2]: can effectively inhibit the binding
inhibition of the binding of the anti-integrin αV antibody to tumor cells [3]: can effectively inhibit the binding

CC[C@H](C)[C@H](NC(=O)[C@@H](NC(=O)[C@H](CC(N)=O)NC(=O)[C@H](CCC(N)=O)NC(=O)[C@@H]1CCCN1C(=O)[C@@H](NC(=O)[C@H](Cc1ccc(O)cc1)NC(=O)CNC(=O)[C@H](Cc1ccc(O)cc1)NC(=O)[C@H](Cc1c[nH]c2ccccc12)NC(=O)[C@H](Cc1c[nH]cn1)NC(=O)[C@H](Cc1ccc(O)cc1)NC(=O)CCCCCNC(=O)[C@H](CS)NC(=O)CN1CCN(CC(=O)O)CCN(CC(=O)O)CC1)[C@@H](C)O)C(C)C)C(=O)O [^68Ga-NOTA-GE11, metal not drawn, reference compound]
tissue to tissue ratio at 2 h ([1]; in vivo): 1.87
